Where no end group is shown, it is not given here.
B1: Abeta29-40 fragment (peptide)
peptide: GAIIGLMVGGVV
modifications: not fully specified
B2: antibody NI-103 (antibody, V domains shown)
VH: EVQLHQSGPELVKPGASVKISCKTSGYTFTEYTMHWVKQSHGKSLEWIGGVNPYNDNTSYIRKLQGKVTLTVDRSSSTAYMELRSLTSEDSAVYFCARYGGLRPYYFPMDFWGQGTSVTVSS
VL: QVVLSQSPAILSASPGERVTLTCRASSSVNYMHWYQQKPGSSPKAWIYATSNLASGVPDRFSASGSGTSYSLTISRVEAEDAATYYCQQWRTNPPTFGAGTKLELKR
notes: detected in ELISA with anti-mouse IgG; treated as the same molecule

Key:
[1] = target: B2; assay: competition ELISA, peptide at 1 µM in solution against coated Abeta1-42
Method: (§1) 96 well half area Microplates (Corning) were coated with synthetic Abeta-peptide preparations at a standard concentration of 1 μg/ml in coating buffer (15 mM Na₂CO₃, 35 mM NaHCO₃, pH 9.42) overnight at 4° C. Plates were washed and non-specific binding sites were blocked for 1 h at RT with PBS containing 2% BSA (Sigma, Buchs, Switzerland).

[2] = target: T1, human wild type APP fused at the intracellular C-terminus to the yellow fluorescent protein variant Citrine, … (human, UniProt P05067 18-770); assay: immunofluorescence on live HEK 293 cells expressing human APP-Citrine, 30 min at 4 C
T1 construct: whole, on cells; also called cellular full-length APP; cell-surface APP; not shown: yellow fluorescent protein variant Citrine at the intracellular C-terminus
Method: HEK 293 cells were transiently transfected with a vector that expresses human wild type APP fused at the intracellular C-terminus to the yellow fluorescent protein variant Citrine. 24 hours after transfection the cells were incubated with human recombinant antibodies or control antibodies at 4° C. for 30 minutes. After a washing step the cell were fixed and surface-bound antibody was detected using Cy-3-labeled secondary antibodies to human or mouse IgG (Jackson ImmunoResearch). Analysis of fluorescence was performed on a confocal microscope (Leica).
Citrin-positive signals indicate APP-expressing cells.

[3] = target: T2, Abeta1-38 (UniProt P05067 672-709); assay: ELISA, peptide coated at 1 ug/ml
T2 construct: range 1-38; Range is counted on the Abeta peptide; also called Abeta fragment consisting of amino acids 1-38
Method: as §1

[4] = target: T3, Abeta17-28 (UniProt P05067 688-699); assay: ELISA, peptide coated at 1 ug/ml
T3 construct: range 17-28; Range is counted on the Abeta peptide
T3 peptide (looked up): LVFFAEDVGSNK
Method: as §1

[5] = target: B1; assay: ELISA, peptide coated at 1 ug/ml
Method: as §1

[6] = target: T4, peptide consisting of amino acids 22-35 of Abeta (UniProt P05067 693-706); assay: ELISA, peptide coated at 1 ug/ml
T4 construct: range 22-35; Range is counted on the Abeta peptide; also called Abeta22-35
T4 peptide (looked up): EDVGSNKGAIIGLM
Method: as §1

[7] = target: T5, Abeta1-28 (UniProt P05067 672-699); assay: ELISA, peptide coated at 1 ug/ml
T5 construct: range 1-28; Range is counted on the Abeta peptide
Method: as §1

[8] = target: T6, Abeta1-11 (UniProt P05067 672-682); assay: ELISA, peptide coated at 1 ug/ml
T6 construct: range 1-11; Range is counted on the Abeta peptide
T6 peptide (looked up): DAEFRHDSGYE
Method: as §1

B1: binds [1].

B2: no binding [2]; no binding [3]; no binding [4]. B2: binds [5]; no binding [6]; no binding [7]. B2: no binding [8].

Reference: patent publication US20100239570A1 (published 2010)
